Paper PMC7809020

What was measured:
[1] = biological target: ATM (biolayer interferometry) (UniProt Q13315); assay: BLI
[2] = biological target: ATM (biolayer interferometry) (UniProt Q13315); assay: BLI; in vitro; SPOP peptide bound to ATM, measured by diffracted light wavelength

Sequence of SPOP wild-type peptide (O43791 whole entry, looked up, tested part not stated): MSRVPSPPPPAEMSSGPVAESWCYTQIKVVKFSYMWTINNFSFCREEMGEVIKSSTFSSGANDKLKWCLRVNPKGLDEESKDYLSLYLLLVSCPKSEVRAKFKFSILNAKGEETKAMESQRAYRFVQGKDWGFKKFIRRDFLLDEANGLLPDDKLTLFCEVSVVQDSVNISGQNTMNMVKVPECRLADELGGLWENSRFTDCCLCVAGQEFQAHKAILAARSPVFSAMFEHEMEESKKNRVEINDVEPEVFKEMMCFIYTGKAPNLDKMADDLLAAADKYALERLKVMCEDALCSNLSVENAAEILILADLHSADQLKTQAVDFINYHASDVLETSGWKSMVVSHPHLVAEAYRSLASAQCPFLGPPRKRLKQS

Kd [1] | amount bound relative to the mutant peptide [2] | Substance
45.5 µM | – | SPOP S119N mutant peptide (from UniProt O43791)
– | 2 fold | SPOP wild-type peptide
0.0698 µM | – | SPOP wild-type peptide (from UniProt O43791)
